B1: Subtilisin B. subtilis: conventional alkaline protease, subtilisin of B. subtilis (protein, UniProt P04189 107-381, looked up)
Subtilisin E: AQSVPYGISQIKAPALHSQGYTGSNVKVAVIDSGIDSSHPDLNVRGGASFVPSETNPYQDGSSHGTHVAGTIAALNNSIGVLGVAPSASLYAVKVLDSTGSGQYSWIINGIEWAISNNMDVINMSLGGPTGSTALKTVVDKAVSSGIVVAAAAGNEGSSGSTSTVGYPAKYPSTIAVGAVNSSNQRASFSSAGSELDVMAPGVSIQSTLPGGTYGAYNGTSMATPHVAGAAALILSKHPTWTNAQVRDRLESTATYLGNSFYYGKGLINVQAAAQ
B2: Subtilisin BPN^1: conventional alkaline protease, subtilisin BPN (protein, UniProt P00782 108-382, looked up)
Subtilisin BPN': AQSVPYGVSQIKAPALHSQGYTGSNVKVAVIDSGIDSSHPDLKVAGGASMVPSETNPFQDNNSHGTHVAGTVAALNNSIGVLGVAPSASLYAVKVLGADGSGQYSWIINGIEWAIANNMDVINMSLGGPSGSAALKAAVDKAVASGVVVVAAAGNEGTSGSSSTVGYPGKYPSVIAVGAVDSSNQRASFSSVGPELDVMAPGVSIQSTLPGNKYGAYNGTSMASPHVAGAAALILSKHPNWTNTQVRSSLENTTTKLGDSFYYGKGLINVQAAAQ
B3: Subtilisin Carlsberg: conventional alkaline protease, subtilisin Carlsberg (protein, UniProt P00780 106-379, looked up)
Subtilisin Carlsberg: AQTVPYGIPLIKADKVQAQGFKGANVKVAVLDTGIQASHPDLNVVGGASFVAGEAYNTDGNGHGTHVAGTVAALDNTTGVLGVAPSVSLYAVKVLNSSGSGSYSGIVSGIEWATTNGMDVINMSLGGASGSTAMKQAVDNAYAKGVVVVAAAGNSGSSGNTNTIGYPAKYDSVIAVGAVDSNSNRASFSSVGAELEVMAPGAGVYSTYPTNTYATLNGTSMASPHVAGAAALILSKHPNLSASQVRNRLSSTATYLGSSFYYGKGLINVEAAAQ

How the values were obtained:
[1] = tested on: alkaline protease; type: biochemical, Streptomyces sp. TOTO-9305; conditions: for Residual Activity: pH 9
[2] = known alkaline proteases, values from References 1-3; cited from earlier work
[3] = tested on: casein; conditions: known alkaline proteases, values from References 1-3; cited from earlier work
[4] = known alkaline proteases, values from References 1-3; cited from earlier work; remark: listed apart in the source
[5] = tested on: casein; conditions: known alkaline proteases, values from References 1-3; cited from earlier work; remark: listed apart in the source
[6] = tested on: keratin; conditions: known alkaline proteases, values from Reference 3; cited from earlier work

| Molecule | inhibition of the activity of the enzyme (in words) [1] | Residual Activity [1] | Isoelectric Point [2] | Specific Activity: Casein [3] | Optimum Temp. [4] | Optimum pH: Casein [5] | Specific Activity: Keratin [6] |
| --- | --- | --- | --- | --- | --- | --- | --- |
| O=S(=O)(F)Cc1ccccc1 [PMSF, phenyl methanesulfonyl fluoride] | inhibited | 0 |  |  |  |  |  |
| O=C(O)CI [Iodoacetic Acid, iodoacetic acid] | not inhibited | 96 |  |  |  |  |  |
| O=C(O)CN(CCN(CC(=O)O)CC(=O)O)CC(=O)O [EDTA, ethylene-diaminetetraacetic acid] | not inhibited | 91 |  |  |  |  |  |
| O=C(O)c1cc[c]([Hg][Cl])cc1 [PCMB, p-chloromercuribenzoate] | not inhibited | 91 |  |  |  |  |  |
| CCCCCCCCCCCCOS(=O)(=O)[O-].[Na+] [SDS, sodium dodecylsulfate] | slightly inhibited | 74 |  |  |  |  |  |
| B1 |  |  | 7.5-8.0 | 2,900 U/mg protein | 55 °C | 10.5 |  |
| B2 |  |  | 7.8 | 2,200 U/mg protein |  | 10.5 | 436 U/mg protein |
| B3 |  |  | 9.8 | 6,500 U/mg protein | 50 °C | 10.5 | 888 U/mg protein |
